B1: CL0020188-4 (antibody, V domains shown)
VH: EVQLVESGGGLVQPGGSLRLSCAGSGFTFTDFYMSWVRQAPGKGPEWLSVIRNKANGYTAGYNPSVKGRFTISRDNSKNTLYLQMNSLRAEDTAVYYCARLTYGFDYWGQGTLVTVSS
VL: DIVMTQTPLSLPVTPGEPASISCQSSKSLLHSTGKTYLNWYLQKPGQSPQLLIYWMSTRASGVPDRFSGSGSGTDFTLKISRVEAEDVGVYYCQQFLEYPFTFGQGTKVEIK
notes: Humanized variant of CL0020188 (hVH NG/3 m, hVL TG/graft); also called Clone CL0020188-4
B2: CL0020188-7 (antibody, V domains shown)
VH: B1 VH with G24A, P45L, L48V, G57A
VL: B1 VL
notes: Humanized variant of CL0020188 (hVH NA/graft, hVL TG/graft); also called Clone CL0020188-7
B3: Reference antibody #1 (antibody, V domains shown)
VH: EVQLVQSGAEVKKPGESLKISCKGSGHSFTNYWIAWVRQMPGKGLEWMGIIYPGDSDTRYSPSFQGQVTISADKSISTAYLQWSSLKASDTAVYFCARQRTFYYDSSGYFDYWGQGTLVTVSS
VL: DIQMTQSPSSVSASVGDRVTITCRASQGISNWLAWYQQKPGKAPKLLIYAASSLQVGVPLRFSGSGSGTDFTLTISSLQPEDFATYYCQQADSFPRNFGQGTKLEIK
B4: Reference antibody #2 (antibody, V domains shown)
VH: B3 VH with H27Y, N31S, V93M, G108D
VL: B3 VL with N31S, V56N, L60S, Y87F, N97T
B5: Reference antibody #3 (antibody, V domains shown)
VH: QVQLVQSGAEVKKPGASVKVSCKASGYAFSSQWMNWVRQAPGQRLEWIGRIYPGGGDTNYAGKFQGRVTITADTSASTAYMELSSLRSEDTAVYYCARLLRNQPGESYAMDYWGQGTLVTVSS
VL: DVVMTQSPDSLAVSLGERATINCRSSQSLVHSNRYTYLHWYQQKPGQSPKLLIYKVSNRFSGVPDRFSGSGSGTDFTLKISRVEAEDVGVYYCSQSTRVPYTFGQGTKLEIK
B6: CL0020123-5 (antibody, V domains shown)
VH: QVQLVQSGAEVKKPGASVKVSCKASGFSIEDFYIHWVRQAPGQGLEWMGWIDPEQGESKYAPKFQGRATITADTSTSTAYMELSSLRSEDTAVYYCHADHGNYGSTMDYWGQGTLVTVSS
VL: DIQMTQSPSSLSASVGDRVTITCHASQHINVWLSWYQQKPGKAPKLLIYKASNLHTGVPSRFSGSGSGTDFTLTISSLQPEDFATYYCQQGQTYPRTFGQGTKVEIK
notes: Humanized variant of CL0020123 (hVH QGES/2 m, Vk graft); also called Clone CL0020123-5
B7: CL0020123-7 (antibody, V domains shown)
VH: B6 VH with Q55N, A68V
VL: B6 VL
notes: Humanized variant of CL0020123 (hVH NGES/1 m, Vk graft); also called Clone CL0020123-7

Positions count from the first letter of the chain named.

Drawing on patent US20220119522A1 (DENALI THERAPEUTICS, published 2022), this text covers EC50 and Kd for seven molecules.

One may read the EC50 as the midpoint of the concentration-response curve. Higher therefore signals weaker potency. A word on the Kd: it is the concentration at which binding is half-saturated.

In the first assay the target is T1, cynomolgus soluble TREM2 (sTREM2) (cynomolgus).
T1 construct: also called sTREM2 in Cyno CSF
Kind of assay: MSD assay: sTREM2 captured from healthy cynomolgus CSF, sulfo-tagged antibody titrated. As to the method: (§1) The affinity of anti-TREM2 antibodies to human TREM2 and cynomolgus TREM2 were measured by Biacore (described in Example 1). The potency of anti-TREM2 antibodies were measured in healthy human volunteer CSF samples (Innovative Research) and healthy cynomolgus monkey CSF samples (Worldwide Primates), by MSD assay. The potency of each antibody was determined by its EC50. Briefly, MSD GOLD 96-well small spot streptavidin plates (MSD, Cat. No. L45SA) coated with capture antibody (biotinylated goat anti-human TREM2, R&D Systems, Cat. No. BAF1828) was incubated with biofluid samples diluted 1:3 in Assay Buffer (25% (v/v) MSD Blocker A (MSD, Cat. No. R93BA-A), 75% (v/v) TBST) for one hour at room temperature. After rinsing the wells with TBST, sulfo-tagged anti-TREM2 antibody was added in a serial dilution (4×dilution over 11 points) to the wells of the plate and incubated for one hour at room temperature. The wells were washed with TBST, and MSD Read Buffer (MSD, Cat. No. R92TC-3) was added to the wells. Signal from the samples were measured using an MSD Meso Sector 5600 device. EC50 values for each antibody was determined by four-parameter variable slope non-linear regression. The variable regions of reference antibody #1 are represented by SEQ ID NOS:344 and 345. The variable regions of reference antibody #2 are represented by SEQ ID NOS:346 and 347. The variable regions of reference antibody #3 are represented by SEQ ID NOS:348 and 349.
B1 gave an EC50 of 0.28 nM. This counts as sub-nanomolar.
The same measure, in the same setting: the figure for B2 is 0.72 nM; for B3 it is 81.6 nM.
The same measure, in the same setting: as for B4, the figure is 6.5 nM.
B5 displayed an EC50 of 33.7 nM.
B6 came in with an EC50 of 49.4 nM. This EC50 and that of the molecule before are within 1.5-fold of each other.
On the same count and under the same terms, the figure for B7 is 16.9 nM.

A further assay addresses T2, recombinant cynomolgus TREM2 ECD (cynomolgus).
T2 construct: extracellular domain; also called cyno TREM2
Description: SPR (Biacore). As to the method:
(§2) Surface plasmon resonance (Biacore™ 8K instrument) was used to measure anti-TREM2 antibody affinities for human and cynomolgus TREM2 ECD. Anti-TREM2 antibodies were captured using Human Fab Capture Kit (GE Healthcare Life Sciences, Catalog No. 28958325) on a Biacore Series S CM5 sensor chip (GE Healthcare Life Sciences, Catalog No. 29149604). Serial 3-fold dilutions of recombinant human or cynomolgus TREM2 were injected at a flow rate of 30 μL/min. Antibody binding was monitored for 300 seconds, followed by monitoring of antibody dissociation for 600+seconds in HBS-EP+ running buffer (GE Healthcare Life Sciences, Catalog No. BR100669). The binding response was corrected by subtracting the RU value from a blank flow cell. A 1:1 Languir model of simultaneous fitting of kₒₙ and koff was used for kinetics analysis. […]
On to B1, for which the Kd amounted to 1.5 nM.
On the same count and under the same terms, as for B2, the figure is 2.8 nM.
The same measure, in the same setting: as for B3, the figure is 14 nM; as for B4, 9.2 nM.
Still for that read-out and setting: as for B5, the figure is 9.2 nM; as for B6, 9.3 nM; as for B7, 9.4 nM.

A further assay deals with T3, His-tagged human TREM2 ECD (human, UniProt Q9NZC2 19-172).
T3 construct: Biacore and HDX say only recombinant human TREM2 (ECD); also called recombinant human TREM2; hTREM2
T3 sequence: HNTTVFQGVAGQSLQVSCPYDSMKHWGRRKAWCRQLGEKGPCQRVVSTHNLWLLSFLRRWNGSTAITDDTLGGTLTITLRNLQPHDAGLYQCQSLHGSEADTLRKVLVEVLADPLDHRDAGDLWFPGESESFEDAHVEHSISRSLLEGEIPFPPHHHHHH
Description: SPR (Biacore). As to the method:
as §2
Molecule B1 registered a Kd of 1.4 nM.
Still for that read-out and setting: as for B2, the figure is 3.3 nM.
For the molecule B3, the Kd was found to be 5.9 nM.
For B4, the dissociation constant (Kd) is 4.3 nM.
On to B5, for which the equilibrium dissociation constant (Kd) worked out at 8.7 nM.
Still for that read-out and setting: as for B6, the figure is 0.63 nM.
The molecule B7 came in with a Kd of 0.08 nM.

The target in the next assay is T4, human TREM2 on the cell surface (human, UniProt Q9NZC2 19-230).
T4 construct: also called surface TREM2; TREM2 expressed in HEK293-H6 cells
T4 sequence: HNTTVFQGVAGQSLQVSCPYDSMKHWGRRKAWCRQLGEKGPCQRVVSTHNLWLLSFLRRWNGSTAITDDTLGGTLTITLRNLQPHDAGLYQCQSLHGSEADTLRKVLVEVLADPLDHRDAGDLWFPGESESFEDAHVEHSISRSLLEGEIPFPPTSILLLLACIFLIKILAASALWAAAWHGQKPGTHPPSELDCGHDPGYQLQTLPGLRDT
Kind of assay: flow cytometry, dose-titrated binding to HEK293-H6 cells. On the procedure: After incubation, the cells were centrifuged and washed in FACS buffer (PBS+0.5% BSA) twice. Mixed cells were resuspended in FACS buffer with human Trustain FcX solution (Biolegend, Catalog No. 422302) at a density of 10⁶/mL per cell line. The mixed cell lines were seeded at 200,000 cells per well in a 96-well round-bottom plate and incubated for 20 minutes at room temperature. After incubation, the cells were centrifuged and incubated with anti-TREM2 antibodies of about 0-200 nM dose titration for 45 minutes on ice. After incubation, the cells were centrifuged and washed with FACS buffer three times. […] After incubation, the cells were washed with FACS buffer three times, resuspended in 100 μL of FACS buffer, and analyzed by flow cytometry (BD FACSCanto II, San Jose, Calif.), for which 30,000 events were obtained for each sample. Mean fluorescence intensity per cells were calculated by FlowJo software and used for generating dose response binding curve.
(§3) Sequence optimization was conducted by searching within CDR sequences for residues that are susceptible to chemical modification (e.g., asparagine deamidation motifs (NG), aspartic acid isomerization motifs (DS), and potential oxidation residues (tryptophan (W) and methionine (M)) and making amino acid substitutions with conservative and germline residues to remove such sequence liabilities. Humanized and sequence-optimized variants of anti-TREM2 antibodies were then analyzed for binding kinetics using Biacore and dose-titrated cell binding to HEK293-H6 cells (see, Example 1 for representative protocols).
As for B1, the EC50 was determined as 0.44 nM.
Still for that read-out and setting: as for B2, the figure is 0.68 nM.
Same read-out and setting: as for B6, the figure is 0.37 nM.
For the molecule B7, the EC50 came to 0.19 nM. Against the preceding molecule, the EC50 is about 1.9-fold lower.

The next assay deals with T3, His-tagged human TREM2 ECD. Kind of assay: SPR (Biacore). The source holds these as a separate data set. On the procedure: Surface plasmon resonance (Biacore™ 8K instrument) was used to measure anti-TREM2 antibody affinities for human and cynomolgus TREM2 ECD. Anti-TREM2 antibodies were captured using Human Fab Capture Kit (GE Healthcare Life Sciences, Catalog No. 28958325) on a Biacore Series S CM5 sensor chip (GE Healthcare Life Sciences, Catalog No. 29149604). Serial 3-fold dilutions of recombinant human or cynomolgus TREM2 were injected at a flow rate of 30 μL/min. Antibody binding was monitored for 300 seconds, followed by monitoring of antibody dissociation for 600+seconds in HBS-EP+ running buffer (GE Healthcare Life Sciences, Catalog No. BR100669). The binding response was corrected by subtracting the RU value from a blank flow cell. A 1:1 Languir model of simultaneous fitting of kₒₙ and koff was used for kinetics analysis.
as §3
(Surface plasmon resonance follows binding to a sensor surface in real time, without labels.)
B1: the affinity, expressed as Kd, was 4.8 nM.
Still for that read-out and setting: the figure for B2 is 10 nM.
The same measure, in the same setting: the figure for B6 is 0.44 nM; for B7 it is 0.15 nM.

The target in another assay is T5, human soluble TREM2 (sTREM2) (human, UniProt Q9NZC2 19-157, limits assumed).
T5 construct: Native shed sTREM2; also called sTREM2 in Human CSF; sTREM2 in huTrem2 KI mouse plasma
T5 sequence: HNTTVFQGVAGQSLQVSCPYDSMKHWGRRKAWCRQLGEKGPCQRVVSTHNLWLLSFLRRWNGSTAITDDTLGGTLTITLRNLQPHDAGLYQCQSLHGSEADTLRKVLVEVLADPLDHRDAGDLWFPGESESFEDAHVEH
Kind of assay: MSD assay: sTREM2 captured from healthy human CSF, sulfo-tagged antibody titrated. On the procedure: as §1
In turn, B1 displayed an EC50 of 0.29 nM.
The same measure, in the same setting: as for B2, the figure is 0.75 nM; as for B3, 32.6 nM.
The molecule B4 had an EC50 of 7.4 nM.
B5 yielded an EC50 of 7.25 nM. The EC50 values of the last two molecules are within 1.5-fold of each other.
Turning to B6, it took 1 nM to reach a half-maximal effect (EC50).
The molecule B7 came in with an EC50 of 0.54 nM.
